What was measured:
[1] = tested on: CC(=O)Oc1ccc([N+](=O)[O-])cc1; test: purified protein; details: pH 7, 37°C
[2] = tested on: CCCC(=O)Oc1ccc([N+](=O)[O-])cc1; test: purified protein; details: pH 7, 37°C
[3] = tested on: CCCCCC(=O)Oc1ccc([N+](=O)[O-])cc1; test: purified protein; details: pH 7, 37°C
[4] = tested on: CCC(=O)Oc1ccc([N+](=O)[O-])cc1; test: purified protein; details: pH 7, 37°C
[5] = substrate: CCC(=O)Oc1ccc([N+](=O)[O-])cc1; test: pNP release, initial rates, Michaelis-Menten fit; assay type: biochemical, Pseudomonas putida
[6] = substrate: CC(=O)Oc1ccc([N+](=O)[O-])cc1; test: pNP release, initial rates, Michaelis-Menten fit; assay type: biochemical, Pseudomonas putida
[7] = substrate: CCCCCC(=O)Oc1ccc([N+](=O)[O-])cc1; test: pNP release, initial rates, Michaelis-Menten fit; assay type: biochemical, Pseudomonas putida; details: pH 8, 37°C
[8] = substrate: CCCCCCCCCC(=O)Oc1ccc([N+](=O)[O-])cc1; test: pNP release, initial rates, Michaelis-Menten fit; assay type: biochemical, Pseudomonas putida; details: pH 8, 37°C
[9] = substrate: CCC(=O)Oc1ccc([N+](=O)[O-])cc1; test: pNP release, initial rates, Michaelis-Menten fit; assay type: biochemical, Rhodopseudomonas palustris; details: pH 9, 37°C
[10] = substrate: CC(=O)Oc1ccc([N+](=O)[O-])cc1; test: pNP release, initial rates, Michaelis-Menten fit; assay type: biochemical, Rhodopseudomonas palustris; details: pH 9, 37°C
[11] = substrate: CCCC(=O)Oc1ccc([N+](=O)[O-])cc1; test: pNP release, initial rates, Michaelis-Menten fit; assay type: biochemical, Rhodopseudomonas palustris; details: pH 9, 37°C
[12] = substrate: CCCCCC(=O)Oc1ccc([N+](=O)[O-])cc1; test: pNP release, initial rates, Michaelis-Menten fit; assay type: biochemical, Rhodopseudomonas palustris; details: pH 9, 37°C
[13] = substrate: CC(=O)Oc1ccc([N+](=O)[O-])cc1; test: pNP release, initial rates, Michaelis-Menten fit; assay type: biochemical, Streptomyces avermitilis; details: pH 8, 37°C
[14] = substrate: CCCCCC(=O)Oc1ccc([N+](=O)[O-])cc1; test: pNP release, initial rates, Michaelis-Menten fit; assay type: biochemical, Pseudomonas aeruginosa; details: pH 8, 37°C
[15] = substrate: CC(=O)Oc1ccc([N+](=O)[O-])cc1; test: pNP release, initial rates, Michaelis-Menten fit; assay type: biochemical, Pseudomonas aeruginosa; details: pH 8, 37°C
[16] = substrate: CCCCCCCCCC(=O)Oc1ccc([N+](=O)[O-])cc1; test: pNP release, initial rates, Michaelis-Menten fit; assay type: biochemical, Pseudomonas aeruginosa; details: pH 8, 37°C

Molecule: RpEST-1 (Rhodopseudomonas palustris CGA009)
- Km [1]: 300 ± 0 µM
- kcat [1]: 65.6 ± 1.5 s⁻¹
- kcat/Km [1]: 219000 M⁻¹ s⁻¹
- Km [2]: 500 ± 0 µM
- kcat [2]: 75.5 ± 1.6 s⁻¹
- kcat/Km [2]: 151000 M⁻¹ s⁻¹
- Km [3]: 1900 ± 100 µM
- kcat [3]: 217 ± 11.8 s⁻¹
- kcat/Km [3]: 114000 M⁻¹ s⁻¹
- Km [4]: 1500 ± 100 µM
- kcat [4]: 307 ± 15.3 s⁻¹
- kcat/Km [4]: 205000 M⁻¹ s⁻¹

B1: PpEST-1 (Pseudomonas putida KT2440) (protein)
chain: MRNRLVLLPGWGLGTAALEPLAASLRAQDARLQVELMPLPELAHSDVQAWIDHLDRKLPNDVWLGGWSLGGMLASALAHKRGDHCCGLLTLASNPSFLARPDWPHGMAEDTFGTFLDGCRNHTQVTLKRFRTLCSDGALQPRTLLRQLGVGVPETDPLYLATGLEVLAKLDTREALQAYDGPQLHLFAGSDALVPAEAAKALSELLPDVEVGMVEDSSHAFLLEYPQELAAGIKSFLHESGDD
- Km ([5]; pH 8, 37°C): 3000 ± 400 µM
- kcat ([5]; pH 8, 37°C): 3.1 ± 0.3 s⁻¹
- kcat/Km ([5]; pH 8, 37°C): 1000 M⁻¹ s⁻¹
- Km ([6]; pH 8, 37°C): 1400 ± 100 µM
- kcat ([6]; pH 8, 37°C): 3.9 ± 0.2 s⁻¹
- kcat/Km ([6]; pH 8, 37°C): 2800 M⁻¹ s⁻¹

B2: PpEST-2 (Pseudomonas putida KT2440) (protein)
chain: MSTFVTRDGTSIYFKDWGSGKPVLFSHGWPLDADMWDSQMEFLASRGYRAIAFDRRGFGRSSQPWNGYDYDTFADDIAQLIEHLDLRDVTLVGFSMGGGDVSRYIARHGSERVAGLVLLGAVTPVFGKRDDNPDGVDLSVFEGIRAGLRADRAQFIADFATPFYGLNHGQQVSQGVQTQTLNIALMASIKGTLDCVTAFSETDFRPDMAKVDVPTLVIHGDDDQIVPFETTGKQAAELIRGAELKVYAGAPHGFAVTHAQQLNEDLLAFLQR
- Km ([5]; pH 9, 37°C): 1000 ± 100 µM
- kcat ([5]; pH 9, 37°C): 3 ± 0.1 s⁻¹
- kcat/Km ([5]; pH 9, 37°C): 3000 M⁻¹ s⁻¹
- Km ([6]; pH 9, 37°C): 1100 ± 100 µM
- kcat ([6]; pH 9, 37°C): 12.5 ± 0.5 s⁻¹
- kcat/Km ([6]; pH 9, 37°C): 11400 M⁻¹ s⁻¹

B3: PpEST-3 (Pseudomonas putida KT2440) (protein)
chain: MIQPVAERTPAGTSYLDVGQGQPVVLIHGVGLNKEMWGGQFVGLANDYRVIAYDMLGHGQSRVPAADTPLEGYADQLAELLDHLQIAQATVIGFSMGGLVARAFALNYPQRLAALVVLNSVFNRTPEQSAGVIARAAQAAELGPDANVDAALDRWFSREYKAANPAQVAAIRQVLASNDPQGYHTTYSLFATQDMYRADDLGSIQVPTLIATGELDSGSTPAMTRQLAACIPGARSVVLAEQRHMMPVEAPREVNKMLLDFLTQARTLTESAKGIVA
- Km ([5]; pH 8, 37°C): 100 ± 0 µM
- kcat ([5]; pH 8, 37°C): 6.8 ± 0.1 s⁻¹
- kcat/Km ([5]; pH 8, 37°C): 67900 M⁻¹ s⁻¹
- Km [7]: 200 ± 0 µM
- kcat [7]: 12.1 ± 0.3 s⁻¹
- kcat/Km [7]: 60400 M⁻¹ s⁻¹
- Km ([6]; pH 8, 37°C): 1000 ± 100 µM
- kcat ([6]; pH 8, 37°C): 6.2 ± 0.3 s⁻¹
- kcat/Km ([6]; pH 8, 37°C): 6200 M⁻¹ s⁻¹
- Km [8]: 800 ± 100 µM
- kcat [8]: 8.7 ± 0.4 s⁻¹
- kcat/Km [8]: 10900 M⁻¹ s⁻¹

B4: RpEST-2 (Rhodopseudomonas palustris CGA009) (protein)
chain: MSEAVMAGAEAFAFDGGKTGVLLVHGFTGSPQSMRYLGERLGERGYSILGPRLPGHGVSPAAMAKTTANDWVNCAEDALLELSAKCDKTFVAGLSMGGTLSLYLAASHPDKVAGVIPINAAVQIDSPDLAGLAYARGLPEFVPGIGSDMVDTSTKELAYDQVPVTCVKQVMGLAATARALLPRIKCPTLVINSRVDHVLSPANATVIANHVGSSRIETLWLDNSYHVATIDNDKDLIAAEIDSFVTRNL
- Km [9]: 4900 ± 1800 µM
- kcat [9]: 24.4 ± 7.8 s⁻¹
- kcat/Km [9]: 4900 M⁻¹ s⁻¹
- Km [10]: 1400 ± 200 µM
- kcat [10]: 52.7 ± 4.3 s⁻¹
- kcat/Km [10]: 37600 M⁻¹ s⁻¹

B5: RpEST-3 (Rhodopseudomonas palustris CGA009) (protein)
chain: MPSFDHAGVNIAYLDEGEGEPILLIHGFASNKNVNWVYPSWLSELKRTGRRVIAIDNRGHGESSKLYDPNDYTLEAMASDAVALMDHLGIARADVMGYSMGARIGANLARRQEQRVRSVVLGGLGMGLLSNEGRPGENVARALEADALDDVTDPVGRTFRAFADQTRSDRKALAACMRGSRGLMSREDAAQIAVPVLIAVGTDDDVAGSAHELGDIIPGSQVLDIPRRDHMRAVGDRVYKEGVVDFLARRP
- Km [11]: 3600 ± 400 µM
- kcat [11]: 7.2 ± 0.7 s⁻¹
- kcat/Km [11]: 2000 M⁻¹ s⁻¹
- Km [12]: 2100 ± 300 µM
- kcat [12]: 5 ± 0.4 s⁻¹
- kcat/Km [12]: 2400 M⁻¹ s⁻¹

B6: SavEST-1 (Streptomyces avermitilis MA-4680 = NBRC 14893) (protein)
chain: MTSQHVVGRFFDVQGGQVYAHVREGDGPALIFLHYWGGSRRTWIPVLQRLDPGQGFVAYDQRGWGGSTSVPGPYDLEQLADDAQRVVDALGYSRYVLVGHSMGGKVAQILAARKPAGLRGVVLVAPAPPAPIGVTEQVQETVSHAYDNEEAVLQSIDLMLTRGGLTPELRRQVVEDSLRGGDEARLEWPRRGLVQDVSAGVSAIEVPVLVLAGSHDKVDPPTVLADHLLPLIPTATLTVLKDTGHLSPLEVPDQVAAHIGAFVAQL
- Km [13]: 300 ± 0 µM
- kcat [13]: 2.9 ± 0.1 s⁻¹
- kcat/Km [13]: 9500 M⁻¹ s⁻¹

B7: PaEST-1 (Pseudomonas aeruginosa) (protein)
chain: MKRFLLGLVLLLAVAAGVLYFVPATLLASVRTVERGLAGLSEHSVQVDNLEIAYLEGGSEKNPTLLLIHGFGADKDNWLRFARPLTERYHVVALDLPGFGDSSKPQQASYDVGTQAERVANFAAAIGVRRLHLAGNSMGGHIAALYAARHPEQVLSLALIDNAGVMPARKSELFEDLERGENPLVVRQPEDFQKLLDFVFVQQPPLPAPLKRYLGERAVAASAFNAQIFEQLRQRYIPLEPELPKIEAPTLLLWGDRDRVLDVSSIEVMRPLLKRPSVVIMENCGHVPMVERPEETAQHYQAFLDGVRNAQVAGR
- Km [14]: 1400 ± 400 µM
- kcat [14]: 12.9 ± 2.4 s⁻¹
- kcat/Km [14]: 9200 M⁻¹ s⁻¹
- Km [15]: 1400 ± 200 µM
- kcat [15]: 1.9 ± 0.2 s⁻¹
- kcat/Km [15]: 1300 M⁻¹ s⁻¹
- Km [16]: 1200 ± 200 µM
- kcat [16]: 9.2 ± 1 s⁻¹
- kcat/Km [16]: 7600 M⁻¹ s⁻¹

— paper PMC3815341
